Marks after values point to notes of the source that are not given here.
Experiments:
[1] = tested on: Ovarian cancer NIH:OVCAR-3 cells; experiment: Antibody cytotoxicity assay (Annexin V + PI), NIH:OVCAR-3; format: cell-based; details: 1, 3 and 10 μg/ml, overnight
Description: (§1) After a 17-20 hr incubation at 37° C., cells were stained with 0.3 μl of FITC-conjugated Annexin V (Strong Biotech Corp. Cat. No. AVK250) in 50 μl Annexin V binding buffer (Strong Biotech Corp. Cat. No. AVK250) at RT for 20 min. After wash, the cells were then stained with 0.3 μl of propidium iodide in 200 μl Annexin V binding buffer. Annexin V and Propidium Iodide were used as a joint indicator for cell death. The data were acquired with BD FACSCalibur based on an acquisition of 3,000-5,000 cells and analyzed with the Cell Quest software. The combined percentages of the Annexin V+/PI+, Annexin V+/PI− and Annexin V−/PI+populations were considered as dead cells.

[2] = tested on: Breast cancer T-47D cells; experiment: Antibody cytotoxicity assay (Annexin V + PI), T-47D; format: cell-based; details: 1, 3 and 10 μg/ml, overnight
Description: as §1

[3] = tested on: Colorectal cancer DLD-1 cells; experiment: Antibody cytotoxicity assay (Annexin V + PI), DLD-1; format: cell-based; details: 1, 3 and 10 μg/ml, overnight
Description: as §1

[4] = tested on: Lung cancer NCI-H520 cells; experiment: Antibody cytotoxicity assay (Annexin V + PI), NCI-H520; format: cell-based; details: 1, 3 and 10 μg/ml, overnight
Description: as §1

[5] = tested on: Pharynx cancer FaDu cells; experiment: Antibody cytotoxicity assay (Annexin V + PI), FaDu; format: cell-based; details: 1, 3 and 10 μg/ml, overnight
Description: as §1

NCI-H358 xenograft = experiment: Lung cancer NCI-H358 xenograft in SCID mice; format: in vivo; details: for tumor volume Mean ± SD: 30 mg/kg i.p.
Description: (§2) Whether the in vitro apoptosis-inducing activity of anti-EpCAM antibodies has any in vivo biological relevance was studied in the xenograft model. […] 5×10^6 DLD-1 or 3×10^6 NCI-H358 cells were implanted subcutaneously into the hind flank region of SCID mice (6-7 weeks) on day 0. Treatment by intraperitoneal injection with antibodies at 12.5 mg/kg for DLD-1 or 30 mg/kg for NCI-H358 in 0.1 ml PBS started on day 1 after tumor-cell inoculation and was repeated at days 4, 8, 11, 15, 18, 22 and 25. As control, 9E10 (an mouse anti-myc antibody) at the same dose were used. Five or six mice were used in each group of the experiment. Tumor growth was assessed based on twice-weekly measurement of tumor volume (mm^3) by calipers and the tumor size was calculated using the formula: π/6×larger diameter×(smaller diameter)^2 (Kievit E, Cancer Research, 60:6649-55). Statistical analysis of tumor growth was performed using the Student's t-test.

[6] = tested on: COLO 205 colon cancer cells; experiment: Cytotoxicity of anti-EpCAM antibodies in combination with oxaliplatin in COLO 205; format: cell-based, human; details: 24 hr
Description: Oxaliplatin, combined with infusional administration of 2 other chemotherapy drugs, 5-fluorouracil/leucovorin (5-FU/LV), is now considered as one of the as first-line treatments for people with advanced carcinoma of the colon or rectum (André et al. (2004) N Engl J Med 350(23):2343-2351). To test the cytotoxicity of anti-EpCAM antibodies in the presence of oxaliplatin, 1×10^5 COLO 205 cells were seeded to each well of a 96-well plate, and then 0.03, 0.3 and 3 μg/ml of anti-EpCAM or control (9E10) mAbs in combination with oxaliplatin at concentration of 0, 0.01, 0.1, and 1 μg/ml diluted in the medium were added into the cells. After a 24-hr incubation at 37° C., the cells were stained with 0.3 μl of FITC-conjugated Annexin V (Strong Biotech Corp. Cat. No. AVK250) in 50 μl Annexin V binding buffer (Strong Biotech Corp. Cat. No. AVK250) at RT for 20 min. After wash, the cells were then stained with 0.3 μl of propidium iodide in 200 μl Annexin V binding buffer. Annexin V and Propidium Iodide were used as a joint indicator for measuring cell death. The data were acquired with BD FACSCalibur based on an acquisition of 3,000-5,000 cells and analyzed with the Cell Quest software. The combined percentages of the Annexin V+/PI+, Annexin V+/PI− and Annexin V−/PI+populations were considered as dead cells.

[7] = tested on: Prostate cancer LNCaP cells; experiment: Antibody cytotoxicity assay (Annexin V + PI), LNCaP; format: cell-based; details: 1, 3 and 10 μg/ml, overnight
Description: as §1

DLD-1 xenograft = experiment: Colorectal cancer DLD-1 xenograft in SCID mice; format: in vivo; details: for tumor volume Mean ± SD: 12.5 mg/kg i.p.
Description: as §2

[8] = tested on: Gastric cancer NCI-N87 cells; experiment: Antibody cytotoxicity assay (Annexin V + PI), NCI-N87; format: cell-based; details: 1, 3 and 10 μg/ml, overnight
Description: as §1

[9] = tested on: NCI-H358 lung cancer cells; experiment: Cell death in NCI-H358 lung cancer cells (Annexin V + PI); format: cell-based, human; details: mean of 5 experiments; mAb 10 μg/ml; 17 hr
Description: 5×10^4 NCI-H358 cells were seeded to each well of a 96-well plate, and then 10 μg/ml of anti-EpCAM or control (9E10) mAbs diluted in the medium was added into the cells. After a 17-hr incubation at 37° C., the cells were stained with 0.3 μl of FITC-conjugated Annexin V (Strong Biotech Corp. Cat. No. AVK250) in 50 μl Annexin V binding buffer (Strong Biotech Corp. Cat. No. AVK250) at RT for 20 min. After wash, the cells were then stained with 0.3 μl of propidium iodide in 200 μl Annexin V binding buffer. Annexin V and Propidium Iodide were used as a joint indicator for measuring cell death. The data were acquired with BD FACSCalibur based on an acquisition of 3,000-5,000 cells and analyzed with the Cell Quest software. The combined percentages of the Annexin V+/PI+, Annexin V+/PI− and Annexin V−/PI+populations were considered as dead cells.

CHO parental cells = experiment: FACS binding of anti-EpCAM antibodies to CHO parental cells; parameters: species or system Chinese hamster; details: antibody 0.1 μg/ml; HPS at 300x dilution
Description: 1×10^5 CHO/EpCAM or CHO parental cells were seeded in each well of a v-bottomed 96-well plate and incubated with purified anti-EpCAM antibodies or mouse IgG control antibody 9E10 at concentration of 0.1 μg/ml. A 300× dilution of human cell hyper-immune serum (HPS 300×) was used as binding positive control for both cell lines here. After 1 hr incubation at 4° C., cells were washed twice with 200 μl FACS buffer (1×PBS containing 1% FBS), stained with 100 μl of 1 μg/ml goat-anti-mouse IgG-PE (Southern Biotech, Cat. No. 1032-09) in FACS buffer and then incubated at 4° C. for 30 min. Cells were washed thrice with FACS buffer and analyzed by flow cytometry (BD LSR, BD Life Sciences).

B1: 12H8: murine anti-human EpCAM monoclonal antibody (IgG2a, K), hybridoma m342-12H8.3; VH SEQ ID NO:3, VL SEQ ID NO:5 (antibody, listed as Mus musculus, V domains shown)
VH: QIQLVQSGPELKKPGETVKISCKTSGYTFTDYSMHWVNQAPGKGLKWMGWINTETGEPTYTDDFKGRFAFSLETSASTAYLQINNLKNEDTATYFCARTAVYWGQGTTLTVSS
VL: DIQMTQSPSSLSASLGERVSLTCRASQEISGSLSWLQQKPDGTIKRLIYAASTLNSGVPKRFSGRRSGSDYSLTISSLESEDFVDYYCLQYSSYPWSFGGGTKLEIKR
Induction of cell death (in words) [1]: substantial cell death
Induction of cell death (in words) [2]: substantial cell death
Induction of cell death (in words) [3]: substantial cell death
Induction of cell death (in words) [4]: substantial cell death
Induction of cell death (in words) [5]: substantial cell death
tumor volume Mean ± SD (NCI-H358 xenograft; d46): 325 ± 132* mm^3
tumor volume Mean ± SD (NCI-H358 xenograft; d50): 475 ± 224* mm^3
tumor volume Mean ± SD (NCI-H358 xenograft; d53): 597 ± 304* mm^3
tumor volume Mean ± SD (NCI-H358 xenograft; d57): 656 ± 274* mm^3
tumor volume Mean ± SD (NCI-H358 xenograft; d60): 680 ± 279* mm^3
tumor volume Mean ± SD (NCI-H358 xenograft; d64): 859 ± 326* mm^3
tumor volume Mean ± SD (NCI-H358 xenograft; d67): 1076 ± 464* mm^3
Inhibition of tumor growth (in words) (NCI-H358 xenograft; lung (NCI-H358) xenograft): efficiently inhibited
% of Annexin V + PI staining (untreated background subtracted) ([6]; mAb 0.03 μg/ml + oxaliplatin 0.01 μg/ml): 10%
% of Annexin V + PI staining (untreated background subtracted) ([6]; mAb 0.03 μg/ml + oxaliplatin 0.1 μg/ml): 9%
% of Annexin V + PI staining (untreated background subtracted) ([6]; mAb 0.03 μg/ml + oxaliplatin 1 μg/ml): 14%
% of Annexin V + PI staining (untreated background subtracted) ([6]; mAb 0.03 μg/ml, oxaliplatin 0 μg/ml): 9%
% of Annexin V + PI staining (untreated background subtracted) ([6]; mAb 0.3 μg/ml + oxaliplatin 1 μg/ml): 35%
% of Annexin V + PI staining (untreated background subtracted) ([6]; mAb 0.3 μg/ml, oxaliplatin 0 μg/ml): 20%
% of Annexin V + PI staining (untreated background subtracted) ([6]; mAb 3 μg/ml + oxaliplatin 0.01 μg/ml): 22%
% of Annexin V + PI staining (untreated background subtracted) ([6]; mAb 3 μg/ml + oxaliplatin 0.1 μg/ml): 26%
% of Annexin V + PI staining (untreated background subtracted) ([6]; mAb 3 μg/ml + oxaliplatin 1 μg/ml): 38%
% of Annexin V + PI staining (untreated background subtracted) ([6]; mAb 3 μg/ml, oxaliplatin 0 μg/ml): 17%
Induction of cell death (in words) [7]: substantial cell death
Inhibition of tumor growth (in words) (DLD-1 xenograft; colorectal (DLD-1) xenograft): efficiently inhibited
tumor volume Mean ± SD (DLD-1 xenograft; d29): 296 ± 154* mm^3
tumor volume Mean ± SD (DLD-1 xenograft; d32): 396 ± 156* mm^3
tumor volume Mean ± SD (DLD-1 xenograft; d36): 521 ± 189* mm^3
tumor volume Mean ± SD (DLD-1 xenograft; d39): 619 ± 232* mm^3
tumor volume Mean ± SD (DLD-1 xenograft; d43): 727 ± 270* mm^3
tumor volume Mean ± SD (DLD-1 xenograft; d46): 839 ± 292* mm^3
tumor volume Mean ± SD (DLD-1 xenograft; d49): 898 ± 207* mm^3
Induction of cell death (in words) [8]: substantial cell death
% of Annexin V + PI staining (untreated background subtracted), Mean ± SEM [9]: 33.6 ± 2.1%
Binding (FACS, Mean fluorescence intensity (MFI)) CHO (CHO parental cells): 5

Reference: US20110165161A1, “ANTI-EPCAM ANTIBODIES THAT INDUCE APOPTOSIS OF CANCER CELLS AND METHODS USING SAME” (priority 2009, published 2011)
